Assay results: the DeepSol protein solubility set

assay: soluble on expression in E. coli; label from the status in PepcDB or PDB records

| Sequence | soluble on expression in E. coli |
| --- | --- |
| MANTITADEIREHFSQAMSAMYQQEVPQYGTLLELVADVNLAVLENNPKLHEQLANADELARLNVERHGAIRVGTAEELSTLRRIFAIMGMYPVSYYDLSQAGVPVHSTAFRPIDEASLSRNPFRMFTSLLRLELIENAALRQRAAEILSQRDIFTSRCRQLLDEYDEQGGFSAAQAEEFVRETLETFRWHRQATVDEETYRSLHREHRLIADVVCFPGCHINHLTPRTLDIDRVQAMMPECGITPKILIEGPPRREVPILLRQTSFKALEEQVLFVDEKQGTHTARFGEIEQRGVALTPKGRRLYDELLHKAGTGKDNFTHQLHLREVFNAFPDSEFLLRQQGLAWFRYRLTPSGEAHRQAIHPGDDPQPLIERGWVIAQPITYEDFLPVSAAGIFQSNLGDETLARSHGNASRDAFEQALGCAVRDEFSLYQEAEERSKRRCGLLLEHHHHHH | not soluble |
| MGHHHHHHENLYFQSHLYFQSHERLSEKKIKNLLTSKQQRQQYEIKQRSMLRHLAELRRHSRFRRLCTKPASSSMPASTSSVDRRTTRRSTSQTSLSPSNSSGYGSVFGCEEHDVDKIPSLNGFAKLKRRRSSCVGAPTPNSKRSKNNMGVIAKRPPKGEYVVERIECVEMD | not soluble |
| MISGHGDFPIALKESSGMIFGEENNLIAVPFFKGEGIQTLQEKYHQALKDIPEEHEVLFLVDIFGGTPYNAAASFIAEDQRMDMAAGVNLPILLEVLSLREHLALKDLLNNLKAMSQQSFQVCSEHLEKVKTANQD | not soluble |
| MGSDKIHHHHHHMHFSKEHINALETRTRAHFINSLSGFKSANLIGTQDRQGNTNLSIVSSVIHLGANPPLMGMIIRPHSVPRHTFENIMQTGLYTINHVNQSIYEQAHQTSARYDKDESEFEATGLTPEYLSDFCAPFVKESRLKYSVKLVEHQHLAINGTEFVIGEIVDVYVDDNAVQTDGFIDLQAIDTVAISGLDCYYTGDKLARLPYAKK | not soluble |
| MGSDKIHHHHHHMNAAQAGLYVDQLTVTWRNGHTALRDASFSVPRGSIAALVGVNGSGKSTLFKALMGFVRVGHGEIAILGQPVNRALRQNLVAYVPQSEEMDWSFPVLVEDVVMMGRYGHMGWLRRAKPRDREIVDAALARVGMSEFRHRQIGELSGGQKKRVFLARAIAQQGQVILLDEPFTGVDVQTEARIISLLRELRDEGCTMLVSTHNLGSVSEFCDYTVMVKGTVLASGPTETTFTAENLERAFSGVLRHVALTGGEAQVITDDERPFISRRAAGGPR | not soluble |
| MIIATAGHVDHGKTTLLQAITGVNADRLPEEKKRGMTIDLGYAYWPQPDGRVPGFIDVPGHEKFLSNMLAGVGGIDHALLVVACDDGVMAQTREHLAILQLTGNPMLTVALTKADRVDEARVDEVERQVKEVLREYGFAEAKLFITAATEGRGMDALREHLLQLPEREHASQHSFRLAIDRAFTVKGAGLVVTGTALSGEVKVGDSLWLTGVNKPMRVRALHAQNQPTETANAGQRIALNIAGDAEKEQINRGDWLLADVPPEPFTRVIVELQTHTPLTQWQPLHIHHAASHVTGRVSLLEDNLAELVFDTPLWLADNDRLVLRDISARNTLAGARVVMLNPPRRGKRKPEYLQWLASLARAQSDADALSVHLERGAVNLADFAWARQLNGEGMRELLQQPGYIQAGYSLLNAPVAARWQRKILDTLATYHEQHRDEPGPGRERLRRMALPMEDEALVLLLIEKMRESGDIHSHHGWLHLPDHKAGFSEEQQAIWQKAEPLFGDEPWWVRDLAKETGTDEQAMRLTLRQAAQQGIITAIVKDRYYRNDRIVEFANMIRDLDQECGSTCAADFRDRLGVGRKLAIQILEYFDRIGFTRRRGNDHLLRDALLFPEK | soluble |
| MGSDKIHHHHHHMGRMKNTFPFVITISRQLGAGGAYIGQQLAKKLSIFYADREIIGQAARKLSVMEEELEPRDEKSLSLWQFLIQSCACTPETSYIPPQITVPSDRELFKTESEIITRIAQEHSTVIIGRCGSYILREHPNHVSMFLHGDLSFRKSRIQKIYHVSENVAEKMIVQSDEERSQYHYKFTGKDWADARQYGLSVNTGRTGVDKTVDCILTYLELIKVRDCIP | not soluble |
| MSANSKDRNQSNQDAKRQQQNFPKKISEGEADLYLDQYNFTTTAAIVSSVDRKIFVLLRDGRMLFGVLRTFDQYANLILQDCVERIYFSEENKYAEEDRGIFMIRGENVVMLGEVDIDKEDQPLEAMERIPFKEAWLTKQKNDEKRFKEETHKGKKMARHGIVYDFHKSDMY | not soluble |
| MVLPERDSPCGWTRMIPLPSDGSVSIAGRSPRLNVEAVEAVVTLPTFKRPEQVLDTLASLRAQRTGRRFAVIVMENEAEVREGAKAVLPLFERGEMPGMVIVAQERGNCSAYNAGWQTAMLHFPNFRHLLVIDDDEIADPHWLERMCMAAETLGADIVGGPQVPVFADAAHARWAEHPVFAPPYRETGRVPALYSSGNLLVGRNVLVAMEPPFLDLKFNFMGGGDSDFLSRAVQNGFVLGWCAEAKVRETVPARRVEPDWIRARSLRNGVISTLVEKKKRAGTPLAGAEVLAKSLALLAAAPFRGLIRLARTGSPAIAIYPVHVALGRVLAEFGYANEQYRQPEKN | not soluble |
| GAMGSQQIATAKDKYEWLVSRIVKNHNENWLSVSRKMQASPEYQDYVYLEGTQKAKKLFLQHIHRLKHE | soluble |
| AHHHHHHMVHITLDRNTANSWLIISKDRRQVRMGDTHQNVSDNKERFSNYPMVLGAQRFSSGKMYWEVDVTQKEAWDLGVCRDSVQRKGQFSLSPENGFWTIWLWQDSYEAGTSPQTTLHIQVPPCQIGIFVDYEAGVVSFYNITDHGSLIYTFSECVFAGPLRPFFNVGFNYSGGNAAPLKLCPLKM | soluble |
| MKERILQEIKTRVNRKSWELWFSSFDVKSIEGNKVVFSVGNLFIKEWLEKKYYSVLSKAVKVVLGNDATFEITYEAFEPHSSYSEPLVKKRAVLLTPLNPDYTFENFVVGPGNSFAYHAALEVAKHPGRYNPLFIYGGVGLGKTHLLQSIGNYVVQNEPDLRVMYITSEKFLNDLVDSMKEGKLNEFREKYRKKVDILLIDDVQFLIGKTGVQTELFHTFNELHDSGKQIVICSDREPQKLSEFQDRLVSRFQMGLVAKLEPPDEETRKSIARKMLEIEHGELPEEVLNFVAENVDDNLRRLRGAIIKLLVYKETTGKEVDLKEAILLLKDFIKPNRVKAMDPIDELIEIVAKVTGVPREEILSNSRNVKALTARRIGMYVAKNYLKSSLRTIAEKFNRSHPVVVDSVKKVKDSLLKGNKQLKALIDEVIGEISRRALSGLEHHHHHH | soluble |
| MTSSIKSDAPQFLLDLDNCSSLPPTPPKTASPGNSKMKGFNISDLCLDLDSSTSSSCSVSPASSFHTRSESVGQQQSGRNSPVSSSTESPTKRPKYSYNALIAMAIQSSPFKSLRVSEIYKYISSNFSYYKNQKPLQWQNSVRHNLSLHKEFRKVRTLDGKGSYWAMTADLGTDVYISNNCGKLRRQKSKVAKFPPMQQHFPIPQLPTQNIHQLCMQNPQILATLLQNMYLQNMQNLQNIPMVPGFPIIPVPINPTSFHFPKSS | not soluble |
| MGEVVKLVTFLGLGKYEESEIKINGNLLDGCVKNDDSQDIFCVRQSIFPLALIEYLNHIGKQVETIFFLTKTVKESKTWDECRRFLRSNIKDFEIPERRIFK | not soluble |
| SNAMFKEAINNYLHTHGYESIDLKAVLFDMDGVLFDSMPNHAESWHKIMKRFGFGLSREEAYMHEGRTGASTINIVSRRERGHDATEEEIKAIYQAKTEEFNKCPKAERMPGALEVLTKIKSEGLTPMVVTGSGQTSLLDRLNHNFPGIFQANLMVTAFDVKYGKPNPEPYLMALKKGGFKPNEALVIENAPLGVQAGVAAGIFTIAVNTGPLHDNVLLNEGANLLFHSMPDFNKNWETLQSALKQD | soluble |
| MGSDKIHHHHHHMSTKPFVYQDPFPLGKDETKYRKIEGSEKHVTVEQFAGKEVLRVCPEALSILANEAMRDVSFLLRPEHNESVAKILRDPEASMNDKGVALAFLRNAEISANFELPICQDTGTATVIAKKGQQVWTGGKDEEYLSKGVYKTYTEENLRYSQTVALNMYDEINTGTNLPAQVEIQAVDGDAYKFLFMAKGGGSANKTMLFQETKALLTPEKLEKFLVDKMKYLGTAACPPYHIAVVVGGCSADQCMKTVKLASAKYLDALPTQGNEHGQAFRDVELEEKLLQAAYKLGIGAQFGGKYFAHDVRVIRLPRHGASCPVGMAVSCSADRNIKAKITRDGLFVEELDRNPGRLIPEQYRGKHEHGVKIDLNRPMKEILAELSKYPVATPLLLNGTIVVGRDIAHAKFKEIIDAGKPVPEYLLNHPIYYAGPAKTPAGKPSGSFGPTTAGRMDSYVDLLQSKGASMIMIAKGNRSQQVTDACQKYGGFYLGSIGGPAAVLAEENIKKVECIDFPELGMEAVWKIEVENFPAFILVDDKGNDFFKQLGL | not soluble |
| MRMDLSRIRNFSIIAHVDHGKSTLADRILELTHAVSDREMREQFLDSLELERERGITIKASAVRVTYRAKDGEEYVFHLIDTPGHVDFTYEVSRALAAVEGVLLVVDASQGVEAETLAKFYMALEHGHVIIPVINKIDLPNARPLEVALEVEEVLGLPADEAIFASGKTGEGVEEILEAIVQRIPPPKGDPEAPLKALIFDSVYDAYQGVIPYLRLFEGRVRPGDRIRIYSTGKEFTVDKVGVFTPQGLVATEALEAGEVGWLVAAIRDIHDVQVGDTITLADRPTPSPYPGFRPAKPVVFAGLYPVDSGDYGKLRDALEKLKLNDAALTFEPESSTALGFGFRCGFLGLLHAEIVQERLEREFGLSLIATAPSVVYKVRLKSGEEVEVHNPADLPDPTRIEEILEPYVKLTIFTPEEYVGSLMQLLQEKRGRLVNMNYLPGAQKRVELVYEAPFAEILYDFHDRLKSVSRGYASMDYEQAGYRPGDLVKVNVLVHGEVVDALTFIAHREKAYTMARAIVDKLAEVIPRQLFEVPIQAAIGGKIIARATVKALRKDVLAKCYGGDVTRKKKLLEKQKEGKKRLKAIGKVEVPQEAFLAVLSAGRDEPKG | soluble |
| MGSDKIHHHHHHMPINSFENYPMNWKPKRPSKGQILYKALAEQLEQDINNGFLLPGTKLPPQRELADFLDVNVSTISRAFKICEKKGLISGVTGSGTFVSYDTRSNLFLMSSNNKITFIEMGTMNPDFTLEEMNTLFKHIIKEIDFKTIFQYGQRDGAKWQKEAIAKLIYKAGLETTSDSLLPASGGQNAIVAILAGLFQHGDRIGVDPLTYPGIKTAAKMLGIQLIPIKQEDNEISEEGLLYACKNENIKGLYIIPDYQNPTTHIMSQNGRKMIANIASKYNLIVIEDAIHSLLNETHLNPVASYLPNQTIYITSLSKIIAPSLRLAYISTPKQYREALSSALYNINLSQSYFLTEIAYRMITSGEADKLINARRKSARRRNKIINQYLSGYNLLGNEECIFRWLILPDGIMAEKFEIQALKEGVQVYASERFAVGKEKPISAIRIAVCATESTEELKAGLSVLKRLLEEKK | not soluble |
| MSLDKPVIQIHTDNSSLIFRVADNGRLYQSYLGKKLNHEADISHLPQGTEAYITHGMEDYFEPAIHILHNDGNPSLLLKYVSHETKAVSQGVNETIITLGDDKYPVTVKLHYVTYPAEDIIKTYTEISHKEKKPVVLHQYASSMLHLNRAKYYLTEFSGDWAHEANISDQPLEFGKKVLDTKLGARANMFTPPFFQLSLDQLATENCGEVLVGTLGWTGNFRFTFEVDNKNELRIISGINPYASEYYLPAGVVFRTPDFYFTYSANGKGKASRNFHDWARRYQLKDGDETRMTLLNNWEATYFDFNEEKLIGLIGDAAGLGVDMFLLDDGWFANKYPRSSDHQGLGDWDETADKLPNGIGRLVEEATKKGIKFGLWIEPEMVNPKSELYEKHKDWVIHLPNRDEYYFRNQLVLDLSNPKVQDFVFGVVDDLMTKYPGIAFFKWDCNSPITNIYSSYLKEKQSHLYIDYVRGLYNVLERIKTKYPDLPMMLCSGGSGRIDYETLRYFTEFWPSDNTDPIERLFIQWGYSQLFPAKTLCAHVTTWNHDASIKFRTDVAMMGKLGFDIKLSDLNDNEKKFCRDAVTNYNHLKPVVLEGDMYRLVSPYSGNHTSTQYVGKDKKGAVVFAFDIYSRYGEKLLPVRLQGLDAGRQYRVKEINLMPGTNSEGHHHHHH | not soluble |
